Measurements: patent publication US20070149453A1
Each block holds one binder with its values, some of them ahead of it.

Legend:
[1] = biological target: T1, p75 TNF Receptor peptide (Dabcyl-C-T-S-T-S-P-T-R-Edans)
T1 chain: CTSTSPTR

[2] = biological target: T2, p55 TNF Receptor peptide (Dabcyl-N-V-K-G-T-E-D-S-G-Edans)
T2 chain: NVKGTEDSG

[3] = biological target: T3, IL-1 Type I Receptor peptide (Dabcyl-T-H-G-I-D-A-A-Y-I-Q-Edans)
T3 chain: THGIDAAYIQ

[4] = biological target: T4, IL-1 Type II Receptor peptide (Dabcyl-Q-T-K-R-T-T-V-K-E-A-Edans)
T4 chain: QTKRTTVKEA

[5] = biological target: T5, IL-6 Receptor peptide (Dabcyl-A-N-A-T-S-L-P-Edans)
T5 chain: ANATSLP

[6] = biological target: mouse p75 TNF receptor (mouse) (UniProt P25119); test: cell-based or functional assay
[7] = biological target: mouse p55 TNF receptor (mouse) (UniProt P25118); test: cell-based or functional assay
Sequence of mouse p55 TNF receptor (mouse) (P25118 30-454 limits assumed): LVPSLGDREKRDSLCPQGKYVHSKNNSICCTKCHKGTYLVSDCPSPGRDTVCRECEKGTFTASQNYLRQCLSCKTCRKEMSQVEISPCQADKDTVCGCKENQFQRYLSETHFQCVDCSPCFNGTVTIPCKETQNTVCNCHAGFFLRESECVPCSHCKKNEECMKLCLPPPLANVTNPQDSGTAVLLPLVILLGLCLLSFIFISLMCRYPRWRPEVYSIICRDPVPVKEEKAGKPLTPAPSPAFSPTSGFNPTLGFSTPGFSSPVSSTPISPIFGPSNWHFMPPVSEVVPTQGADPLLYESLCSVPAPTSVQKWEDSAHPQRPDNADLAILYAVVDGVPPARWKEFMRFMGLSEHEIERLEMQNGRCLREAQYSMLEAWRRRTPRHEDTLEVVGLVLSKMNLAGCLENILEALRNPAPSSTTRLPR

Sequence of mouse p75 TNF receptor (mouse) (P25119 23-474 limits assumed): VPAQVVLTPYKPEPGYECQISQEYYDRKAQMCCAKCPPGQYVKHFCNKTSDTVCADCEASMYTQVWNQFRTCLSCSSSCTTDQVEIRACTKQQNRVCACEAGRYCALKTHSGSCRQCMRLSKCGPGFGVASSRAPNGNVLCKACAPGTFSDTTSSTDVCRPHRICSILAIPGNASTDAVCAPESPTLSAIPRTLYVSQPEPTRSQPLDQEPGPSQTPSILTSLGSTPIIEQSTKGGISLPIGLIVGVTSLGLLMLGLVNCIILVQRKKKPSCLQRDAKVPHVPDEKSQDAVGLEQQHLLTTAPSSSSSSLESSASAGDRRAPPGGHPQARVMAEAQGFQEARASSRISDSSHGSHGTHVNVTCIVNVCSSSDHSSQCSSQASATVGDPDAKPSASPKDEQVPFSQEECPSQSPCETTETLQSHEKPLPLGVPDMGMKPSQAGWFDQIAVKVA

B1: MP8-FL2 (full length MP8 without His tag, from E. coli strain MP820) (protein)
chain: MCVHPGACLPHVGVSWAEFPGHFSVELSSLLVRNVNYEIPSLKKQIAKCQQLQQEYSRKEEECQAGAAEMREQFYHSCKQYGITGENVRGELLALVKDLPSQLAEIGAAAQQSLGEAIDVYQASVGFVCESPTEQVLPMLRFVQKRGNSTVYEWRTGTEPSVVERPHLEELPEQVAEDAIDWGDFGVEAVSEGTDSGISAEAAGIDWGIFPESDSKDPGGDGIDWGDDAVALQITVLEAGTQAPEGVARGPDALTLLEYTETRNQFLDELMELEIFLAQRAVELSEEADVLSVSQFQLAPAILQGQTKEKMVTMVSVLEDLIGKLTSLQLQHLFMILASPRYVDRVTEFLQQKLKQSQLLALKKELMVQKQQEALEEQAALEPKLDLLLEKTKELQKLIEADISKRYSGRPVNLMGTSL
- peptide cleavage (FRET assay) [1]: The same preparation of MP8-FL2 caused cleavage of both R1 ... and R2 (Dabcyl-C-T-S-T-S-P-T-R-Edans; SEQ. ID NO:73)
- peptide cleavage (FRET assay) [2]: The same preparation of MP8-FL2 caused cleavage of both R1 (Dabcyl-N-V-K-G-T-E-D-S-G-Edans; SEQ. ID NO:71) and R2

- circulating TNF receptor in serum of Balb/c mice after s.c. MP8 (ELISA) [6]: 100 fold
- circulating TNF receptor in serum of Balb/c mice after s.c. MP8 (ELISA) [7]: 100 fold
B2: MP8 (original clone, core MP8, N-terminal His tag and thrombin site) (protein)
chain: WIQRIRHEGNSTVYEWRTGTEPSVVERPHLEELPEQVAEDAIDWGDFGVEAVSEGTDSGISAEAAGIDWGIFPESDSKDPGGDGIDWGDDAVALQITVLEAGTQAPEGVARGPDALTLLEYTETRNQFLDELMELEIFLAQRAVELSEEADVLSVSQFQLAPAILQGQTKEKMVTMVSVLEDLIGKLTSLQLQHLFMILASPRYVDRVTEFLQQKLKQSQLLALKKELMVQKQQEALEEQAALEPKLDLLLEKTKELQKLIEADISKRYSGRPVNLMGTSL
- peptide cleavage (FRET assay, Zn++/Ca++ dependent) [1]: MP8 cleaves the peptides from both the p55 and p75 TNF receptors (TNF-R1 and TNF-R2)
- relative peptide cleavage activity (FRET assay) [3]: Clone MP8 shows specificity for several receptors involved in the inflammatory pathway (TNF-R p55 and p75 isoforms, IL-6 receptor and IL-1 receptors) in comparison with control substrates
- peptide cleavage (FRET assay, Zn++/Ca++ dependent) [2]: MP8 cleaves the peptides from both the p55 and p75 TNF receptors (TNF-R1 and TNF-R2)
- relative peptide cleavage activity (FRET assay) [4]: Clone MP8 shows specificity for several receptors involved in the inflammatory pathway (TNF-R p55 and p75 isoforms, IL-6 receptor and IL-1 receptors) in comparison with control substrates
- peptide cleavage (FRET assay, Zn++/Ca++ dependent) [5]: MP8 also cleaves the IL-6 receptor peptide with high activity
